Experimental data published in the nanobody polyreactivity screen of Harvey et al. (2022).

Assay: yeast display, Sf9 membrane polyspecificity reagent, FACS + sequencing; frameworks hold sequencing errors
Outline: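 Genes from sorted yeast were amplified by colony PCR, read by MiSeq 2 × 250 sequencing and filtered on CDR length. These cells carried a synthetic nanobody library in Saccharomyces cerevisiae BJ5465 and were sorted by FACS into low and high (top ~1%) gates on anti-HA and streptavidin fluorescence. Polyreactivity is labelled according to the gate of origin.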

With “QVQLVESGGGLVQAGGSLRLSCAASGSTFSENAMGWSRQAPGKERELVAAISWGGGSTYYADSVKGRFTISRDNAKNTVYLQMNSLKPEDTAVYYCNADVFDDYGYFESDYWGQGTQVTVSS” as the sequence, how does the “polyreactivity (PSR sort gate)” value read?
The value was “low polyreactivity”.

Which “polyreactivity (PSR sort gate)” value does the source give for “QVQLVESGGGLVQAGGSLRLSCAASGSTFSEYGMGWYRQAPGKERELVARITSGGSPYYADSVKGRFTISRDNAKYTVYLQMNSLKPEDTAVYYCATVKTRDYWGQGTQVTVSS” here?
The value was “low polyreactivity”.

For “QVQLVESGGGLVQAGGSLRLSCAASGSTFSFYAMGWYRQAPGKERELVAAISWSDGSTYYADSVKGRFTISRDNAKNTVYLQMNSLKPEDTAVYYCAARRLAYIFYTVGYDYWGQGTQVTVSS”, which “polyreactivity (PSR sort gate)” value is on record?
Its value is “low polyreactivity”.

With “QVQLVESGGGLVQAGGSLRLSCAASGSTFSFYDMGWSRQAPGKEPELVAAITGSGGTTYYADSVKVRFTISRDNAKNTVYFQMNILKPEDTAFYYCAADSLESYPDYEYDFWGQGTQVTVSS” as the sequence, how does the “polyreactivity (PSR sort gate)” value read?
The value was “low polyreactivity”.

For “QVQLVESGGGLVQAGGSLRLSCAASGSTFSGNAMGWDRQAPGKESELVAAINSVRTYYADSVKGRFTISRDNAKNTVYLQMNSLKQEDTAVYYCNAEGYVSLSQYGVRRHSDYWGQGTQVNVSS”, which “polyreactivity (PSR sort gate)” value is on record?
The value was “high polyreactivity”.

For “QVQLVESGGGLVQAGGSLRLSCAASGSTFSGNAMGWYRQAPGKERELVAAITSSGGSTYYADSVKGRFTISRDTAKNTVYLQMNSLKPEDTAVYYCAAKSRRTRRSYYWGQGTQVTVSS”, which “polyreactivity (PSR sort gate)” value is on record?
Its value is “high polyreactivity”.

For “QVQLVESGGGLVQAGGSLRLSCAASGSTFSGYAMGWYRQAPGKERELVAAISTSGGRTYYADSVKGRFTISRDNAKNTVYLQMNSLKPEDTAVYYCAAQYRGLYKGLGSWGQGTQVTVSS”, which “polyreactivity (PSR sort gate)” value is on record?
The value was “high polyreactivity”.

With “QVQLVESGGGLVQAGGSLRLSCAASGSTFSGYAMGWYRQAPGKERELVAAITSGGSTNYADSVKGRFTISRDNAKNTVYLQMNSLKPEDTAVYYCAADSREVSTTAYYYWGQGTQVTVSS” as the sequence, how does the “polyreactivity (PSR sort gate)” value read?
The value was “low polyreactivity”.

With “QVQLVESGGGLVQAGGSLRLSCAASGSTFSGYAMGWYRQAPGKERELVAGIRLDGSRTYYADSVKGRFTISRDNAKNTVYLQMNSLKPEDTAVYYCAAPSGTYWTRREYWGQGSQVTVSS” as the sequence, how does the “polyreactivity (PSR sort gate)” value read?
The value was “low polyreactivity”.

With “QVQLVESGGGLVQAGGSLRLSCAASGSTFSGYVMGWYRQAPGKERELVAAISWGGSRTYYADSVKGRFTISRDNAKNTVYLQMNSLKPEDTAVYYCNAYTSYGTFFYWAWPYYYWGQGTQVTVSS” as the sequence, how does the “polyreactivity (PSR sort gate)” value read?
The value was “high polyreactivity”.

For “QVQLVESGGGLVQAGGSLRLSCAASGSTFSINAMGWYRQAPGKERELVAAISSGGSTYYADSVKGRFTISRDNAKNTVYLQMNSLKPEDTAVYYCAVDPPWTYWSTYRYDYWGQGTQVTVSS”, which “polyreactivity (PSR sort gate)” value is on record?
Its value is “low polyreactivity”.

Which “polyreactivity (PSR sort gate)” value does the source give for “QVQLVESGGGLVQAGGSLRLSCAASGSTFSIYGMGWYRQAPGKERELVAVITARDGSTYYADSVKGRFTISRDNAKNTVYLQMNSLKPEDTAVYYCAADIGPRYDSWGQGTQVTVSS” here?
Its value is “high polyreactivity”.

For “QVQLVESGGGLVQAGGSLRLSCAASGSTFSKNAMGWYRQAPGKERELVAAIRSRGGSTYYADSVKGRFTISRDNAKNTVYLQMNSLKPEDTAVYYCNKVRAYEGDYWGQGTQVTVTS”, which “polyreactivity (PSR sort gate)” value is on record?
The value was “high polyreactivity”.

With “QVQLVESGGGLVQAGGSLRLSCAASGSTFSNNSIGWYRQAPWKETELVAAISWYGDSTYADSVKGRFTISRDNAKNTVYLQMNSLKAEATAVYYCAKDTIITPGRRKSPRDRHGYWGQGTQVTVSS” as the sequence, how does the “polyreactivity (PSR sort gate)” value read?
The value was “low polyreactivity”.

Which “polyreactivity (PSR sort gate)” value does the source give for “QVQLVESGGGLVQAGGSLRLSCAASGSTFSNYALGWYSQAPGKERELVAAITSRGGRTYYADSVKGRFTISRDNAKNTVYLQMNSLKPEDTAVYYCAARVGSGRAIDLYYYWGQGTQVTVSS” here?
Its value is “low polyreactivity”.

For “QVQLVESGGGLVQAGGSLRLSCAASGSTFSNYAMGWYRQAPGKERELVAAISVRGGSTYYADSVKGRFTISRDNAKNTVYLQMNSLKPEDTAVYYCAKYYYYLRSARKYDYWGQGTQVTVSS”, which “polyreactivity (PSR sort gate)” value is on record?
Its value is “high polyreactivity”.

Which “polyreactivity (PSR sort gate)” value does the source give for “QVQLVESGGGLVQAGGSLRLSCAASGSTFSNYAMGWYRQAPGKERELVASISNGGSTNYADSVKGRFTISRDNAMNTVYLQMNSLKPEDTSVYNCNAESKAKYDYWGQGTQVTVSS” here?
The value was “low polyreactivity”.

For “QVQLVESGGGLVQAGGSLRLSCAASGSTFSPNAMGWYRQAPGKERELVAAITGGGSTYADSVKGRFTISRDNAKNTVYLQMNSLKPEDTAVYYFNADSYSFPYYYWGQGTQVTVSS”, which “polyreactivity (PSR sort gate)” value is on record?
Its value is “low polyreactivity”.

Which “polyreactivity (PSR sort gate)” value does the source give for “QVQLVESGGGLVQAGGSLRLSCAASGSTFSPNAMGWYRQAPGKERELVAAITYRGANTYYADSVKGRFTISRDNEKNTVYLQMNSLKPEDNAVYYCAAEYAYHHVGFGYWGQGTQVTVSS” here?
Its value is “low polyreactivity”.

With “QVQLVESGGGLVQAGGSLRLSCAASGSTFSPNAMGWYRQAPGKERELVADIDWSGGGTYYADSVKGRFTISRDNAKNTVYLQMNSLKPEDTAVYYCAAGYVWWPFEYDYWGQGTQVTVSS” as the sequence, how does the “polyreactivity (PSR sort gate)” value read?
Its value is “high polyreactivity”.

For “QVQLVESGGGLVQAGGSLRLSCAASGSTFSPYAMGWYRQAPGKERELVAAITSSGGSTYYADSVKGRFTISRDNAKNTVYLQMNSLKPEDTAVYYCAAEGYYTSTYDLYDYYWGQGTQVTVSS”, which “polyreactivity (PSR sort gate)” value is on record?
Its value is “low polyreactivity”.

Which “polyreactivity (PSR sort gate)” value does the source give for “QVQLVESGGGLVQAGGSLRLSCAASGSTFSPYAMGWYRQAPGKERELVANITISGGSTYYADSVKGRFTISRDNAKNTVYLQMNSLKPEDTAVYYCNADSLIRWLFTVVIFDYWGQGTQVTVSS” here?
Its value is “low polyreactivity”.

With “QVQLVESGGGLVQAGGSLRLSCAASGSTFSPYARGWYRQAPGKERELVANITISGGSTYYADSVKGRFTISRENAKNTVYFQMNSLKPEDTGVYYSNADSLIRWLFTVVIFDYWGQGTQVTVSS” as the sequence, how does the “polyreactivity (PSR sort gate)” value read?
Its value is “low polyreactivity”.

For “QVQLVESGGGLVQAGGSLRLSCAASGSTFSRNAKGWYRQAPGKERELVAAITRSGGSTYYADSVKGRFTISRDNAKNTVYLQMNSLKPEDTAVYYCAVAVPRGVYLYDYWGQGTQVTVSS”, which “polyreactivity (PSR sort gate)” value is on record?
Its value is “low polyreactivity”.

Which “polyreactivity (PSR sort gate)” value does the source give for “QVQLVESGGGLVQAGGSLRLSCAASGSTFSRNAMGWYRQAPGKERELVAAITRSGGSTYYADSVKGRFTISRDNAKNTVYLQMNSLKPEDTAVYYCAVAVPRGVYLYDYWGQGTQVTVSS” here?
Its value is “low polyreactivity”.

Which “polyreactivity (PSR sort gate)” value does the source give for “QVQLVESGGGLVQAGGSLRLSCAASGSTFSRNAMGWYRQAPGKERELVASISWSGARTYYADSVKGRFTISRDNAKNTVYLQMNSLKPEDTAVYYCAKFRSYRGPYNYWGQGTQVTVSS” here?
The value was “high polyreactivity”.

For “QVQLVESGGGLVQAGGSLRLSCAASGSTFSRNAMGWYRQAPGKERELVATISRSGRTNYADSVKGRFTISRDNAKNTVYLQMNSLKPEDTAVSYCNAGYRRSYEYWGQGTQVTVSS”, which “polyreactivity (PSR sort gate)” value is on record?
The value was “low polyreactivity”.

With “QVQLVESGGGLVQAGGSLRLSCAASGSTFSRNAMGWYRQAPGKERELVATISWRGGSTYYADSVKGRFTISRDNAKNTVYLQMNSLKPEDTAVYYCATLHRPAYYYWGQGTQVTVSS” as the sequence, how does the “polyreactivity (PSR sort gate)” value read?
Its value is “high polyreactivity”.

With “QVQLVESGGGLVQAGGSLRLSCAASGSTFSRYAMGWDRQAPGKEMELVAAISSSGGGTYYADSVKGRFTISRDNAKNTVYLQMNSLKPEDTAVSYCAAKRVHGATGYWGQGTQVTVSS” as the sequence, how does the “polyreactivity (PSR sort gate)” value read?
Its value is “high polyreactivity”.

For “QVQLVESGGGLVQAGGSLRLSCAASGSTFSRYAMGWSRQAPGKERELVAVITGSGGSTYYADSVKGRFTISRDNAKNTVYLQMNSLKPEDTAVYYCNAVYFALSPQYYWAASDYWGQGTQVTVSS”, which “polyreactivity (PSR sort gate)” value is on record?
Its value is “high polyreactivity”.

For “QVQLVESGGGLVQAGGSLRLSCAASGSTFSRYAMGWYRPAPGKERELVAAISYSGDSTYYADSVKGRFTISRDNAKNTVYLQMNSLKPEDTAVYYCNVYSHYRGYYWGQGTQVTVSS”, which “polyreactivity (PSR sort gate)” value is on record?
Its value is “high polyreactivity”.

For “QVQLVESGGGLVQAGGSLRLSCAASGSTFSRYAMGWYRQAPGKERELVAAISSRGGSTYYADSVKGRFTISRDNAKNTVYLQMNSLKPEDTAVYYCNALTSYQNHVYPYDYWGQGTQVTVSS”, which “polyreactivity (PSR sort gate)” value is on record?
The value was “high polyreactivity”.

Which “polyreactivity (PSR sort gate)” value does the source give for “QVQLVESGGGLVQAGGSLRLSCAASGSTFSRYAMGWYRQAPGKERELVAAISSSGGSTYYADSVKGRFTISRDNAKNTVYLQMNSLKPEDTAVYYCAARYYGVTRGYNYWGQGTQVTVSS” here?
The value was “high polyreactivity”.

With “QVQLVESGGGLVQAGGSLRLSCAASGSTFSRYAMGWYRQAPGKERELVAAISWGGNTYYADSVKGRFTISRDNAKNTVYLQMNSLKPEDTAVYYCNRYSKLYNTMDYWGQGPQVTVSS” as the sequence, how does the “polyreactivity (PSR sort gate)” value read?
Its value is “high polyreactivity”.

Which “polyreactivity (PSR sort gate)” value does the source give for “QVQLVESGGGLVQAGGSLRLSCAASGSTFSRYAMGWYRQAPGKERELVAAITYRGARTYYADSVKGRFTISRDNAKNTVYLQMNSLKPEDTAVYYCNTVPPPYNFRYGYWGQGTQVTVSS” here?
Its value is “high polyreactivity”.

With “QVQLVESGGGLVQAGGSLRLSCAASGSTFSRYPMGWSRQAPGKERELVAAISWGGNTYYADSVKGRFTISRDNAKNTVYLQMNSLQPEDTAVYYCNRYSKLYNTMDYWGQGTQVTVSS” as the sequence, how does the “polyreactivity (PSR sort gate)” value read?
Its value is “high polyreactivity”.

Which “polyreactivity (PSR sort gate)” value does the source give for “QVQLVESGGGLVQAGGSLRLSCAASGSTFSSLIMGWYRQAPGKERELVAAISRSGGRTYYADSVKGRFTISRDNAKNTVYLQMNSLIPEDTAVYYCAADYVSVDRIRYGYCGQGTQVTVSS” here?
Its value is “high polyreactivity”.

For “QVQLVESGGGLVQAGGSLRLSCAASGSTFSSYAMGWYRQAPGKEREIVADINGSGGRTYYADSVKGRFTISRDNAKNTVYLQMNSLKPEDTAVYYCIAYYLQGEYYTEDYWGQGTQVTVSS”, which “polyreactivity (PSR sort gate)” value is on record?
Its value is “low polyreactivity”.

For “QVQLVESGGGLVQAGGSLRLSCAASGSTFSTNARGWYRQAPGKERELVAAINWSTGSTHYADSVKGRFTISRDNAKNTVYLQMNSLKPEDTAVYFCAAEGPKQYDYWGQGYQVTVSS”, which “polyreactivity (PSR sort gate)” value is on record?
Its value is “low polyreactivity”.

Which “polyreactivity (PSR sort gate)” value does the source give for “QVQLVESGGGLVQAGGSLRLSCAASGSTFSTYAMGWYRQAPGKEREFVAAIRWSGGSTYYADSVKGRFTISRDNAKNTVYLQMNSLKREHTAVYYSAKGIRRWYGGCDYWGQGTKVTVSS” here?
Its value is “low polyreactivity”.

Which “polyreactivity (PSR sort gate)” value does the source give for “QVQLVESGGGLVQAGGSLRLSCAASGSTFSTYAMGWYRQAPGKERELVATISKRGGSTYYADSVKGRFTISRDNAKNTVYLQMNSLKAEDTAVYYCDARWQWLNGYYYWGQGTQVSVSS” here?
Its value is “high polyreactivity”.

With “QVQLVESGGGLVQAGGSLRLSCAASGSTFSVNAMGWYRQAPGKEREFVARITWRGGSTYYADSVKRRFTISRDNAKNTVYLQMNSLKPEDTAVYYCAATLRYWWRSSYEDYYWGQGTQVTVSS” as the sequence, how does the “polyreactivity (PSR sort gate)” value read?
The value was “low polyreactivity”.

With “QVQLVESGGGLVQAGGSLRLSCAASGSTFSVYALGWYRPAPGKERELVAVISSTDDSTYYADSVKGRFTISRDNAKNTVYLQMNSLKPEDTAVYYCAAPDDTTGYDYYYWGQGTQVTVSS” as the sequence, how does the “polyreactivity (PSR sort gate)” value read?
Its value is “low polyreactivity”.
